Source: paper doi:10.1101/737593 (bioRxiv, 2019)
Residue numbers refer to the chain shown, from its start.

B1: hexa-histidine affinity tagged (His6)-MrpC (natural protein, Myxococcus xanthus, UniProt Q9FDC4 1-248, looked up)
chain: MHGFNRPLGPIGSNVVAPLQTTSSGMMVTANKLVPGQEAIDFKGYFKVESFPHNSTIYRPGDNTDRVYLLKSGRVRLMRIGKNSTRSVVSILRPGDLFGELFRPEGTPIEEMAIAAGEAEVWSIEGRDFRAQLEARPALAVDVVRAYAERVRALRKRVLGLTFKEVPARLADTLLTLVEAHGERCPHGGETDLRGITQQDLADLVGASRSFVSTLINEMKREGVLGNVGRILCVRDQKALRKIAGKEK
B2: His6-MrpC_(AAAA) (natural protein, Myxococcus xanthus, UniProt Q9FDC4 1-248, looked up)
chain: B1 chain with T21A, T22A, S23A, S24A
B3: His6-MrpC lacking the 25 amino terminal residues (His6-MrpC_(ΔN25)) (domain or fragment, Myxococcus xanthus, UniProt Q9FDC4 26-248, looked up)
chain: MMVTANKLVPGQEAIDFKGYFKVESFPHNSTIYRPGDNTDRVYLLKSGRVRLMRIGKNSTRSVVSILRPGDLFGELFRPEGTPIEEMAIAAGEAEVWSIEGRDFRAQLEARPALAVDVVRAYAERVRALRKRVLGLTFKEVPARLADTLLTLVEAHGERCPHGGETDLRGITQQDLADLVGASRSFVSTLINEMKREGVLGNVGRILCVRDQKALRKIAGKEK

Biological target: the molecule itself
Test: SEC

Stoichiometry N, 2:
B1
B2
B3
